Test system: Escherichia coli TOP10
Experiment: shrunken log2 fold change of peptide-encoding DNA abundance (4.5 h post-induction vs induction); higher = less antimicrobial activity (less host growth inhibition)
Details: time post-induction: 4.5 h; library: site-saturation at positions 5, 18, 19, 20
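Note: peptides expressed intracellularly from a pBAD plasmid library in pooled LB shake-flask culture, induced with 0.3% L-arabinose, DNA abundance read by NGS, three biological replicates, DESeq2 with apeglm shrinkage.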

| Sequence | shrunken log2 fold change |
| --- | --- |
| RRIRRRPPRLPRPRPRPTMLPRP | 0.0234 |
| RRIRQRPPRLPRPRPRPSGSPRP | -0.0833 |
| RRIRKRPPRLPRPRPRPLNYPRP | -0.217 |
| RRIRLRPPRLPRPRPRPGTKPRP | 0.2 |
| RRIRVRPPRLPRPRPRPVELPRP | 0.104 |
| RRIRWRPPRLPRPRPRPTYNPRP | 0.4 |
| RRIRCRPPRLPRPRPRPFANPRP | -0.29 |
| RRIRLRPPRLPRPRPRPHNQPRP | -0.479 |
| RRIRCRPPRLPRPRPRPLTKPRP | 0.291 |
| RRIRPRPPRLPRPRPRPLNRPRP | -0.0518 |
| RRIRRRPPRLPRPRPRPIVAPRP | 0.174 |
| RRIRGRPPRLPRPRPRPAFAPRP | 0.89 |
| RRIRCRPPRLPRPRPRPTRRPRP | 0.391 |
| RRIRWRPPRLPRPRPRPTVAPRP | 0.662 |
| RRIRGRPPRLPRPRPRPPHRPRP | 0.81 |
| RRIRCRPPRLPRPRPRPIGCPRP | -0.00449 |
| RRIRDRPPRLPRPRPRPEYPPRP | -0.0367 |
| RRIRNRPPRLPRPRPRPCAFPRP | -0.071 |
| RRIRPRPPRLPRPRPRPDACPRP | 0.183 |
| RRIRFRPPRLPRPRPRPDRWPRP | 0.0556 |
| RRIRDRPPRLPRPRPRPNRFPRP | -0.00648 |
| RRIRLRPPRLPRPRPRPNLCPRP | 0.119 |

| Sequence | shrunken log2 fold change |
| --- | --- |
| RRIRVRPPRLPRPRPRPTRMPRP | 0.0492 |
| RRIRRRPPRLPRPRPRPMGKPRP | 0.35 |
| RRIRPRPPRLPRPRPRPQEAPRP | 0.0203 |
| RRIRLRPPRLPRPRPRPCQLPRP | -0.8 |
| RRIRRRPPRLPRPRPRPSDAPRP | -0.0697 |
| RRIRIRPPRLPRPRPRPNDNPRP | -0.912 |
| RRIRVRPPRLPRPRPRPGILPRP | -0.466 |
| RRIRNRPPRLPRPRPRPLGHPRP | -0.262 |
| RRIRQRPPRLPRPRPRPEIAPRP | -0.151 |
| RRIRARPPRLPRPRPRPCETPRP | 0.00546 |
| RRIRMRPPRLPRPRPRPKTDPRP | 1.32 |
| RRIRLRPPRLPRPRPRPVWCPRP | 0.0297 |
| RRIRQRPPRLPRPRPRPFAMPRP | -0.132 |
| RRIRCRPPRLPRPRPRPVSWPRP | 0.49 |
| RRIRYRPPRLPRPRPRPQRKPRP | -0.263 |
| RRIRHRPPRLPRPRPRPSYWPRP | 0.0148 |
| RRIRARPPRLPRPRPRPTVHPRP | 2.45 |
| RRIRNRPPRLPRPRPRPVTQPRP | 0.0396 |
| RRIRRRPPRLPRPRPRPMNDPRP | 0.338 |
| RRIRFRPPRLPRPRPRPICLPRP | -0.548 |
| RRIRERPPRLPRPRPRPFPQPRP | 2.37 |
| RRIRGRPPRLPRPRPRPRVQPRP | 0.218 |

| Sequence | shrunken log2 fold change |
| --- | --- |
| RRIRERPPRLPRPRPRPRKIPRP | 0.0442 |
| RRIRKRPPRLPRPRPRPSNAPRP | -0.154 |
| RRIRERPPRLPRPRPRPYVRPRP | -0.00133 |
| RRIRMRPPRLPRPRPRPQQQPRP | 0.246 |
| RRIRLRPPRLPRPRPRPHWQPRP | 0.0281 |
| RRIRRRPPRLPRPRPRPGCFPRP | 0.5 |
| RRIRERPPRLPRPRPRPYKIPRP | -0.266 |
| RRIRLRPPRLPRPRPRPMLSPRP | 0.0192 |
| RRIRVRPPRLPRPRPRPYMFPRP | -0.552 |
| RRIRLRPPRLPRPRPRPVKDPRP | -0.211 |
| RRIRQRPPRLPRPRPRPRPIPRP | 0.385 |
| RRIRPRPPRLPRPRPRPRFEPRP | 0.0793 |
| RRIRVRPPRLPRPRPRPEMNPRP | -0.16 |
| RRIRIRPPRLPRPRPRPPKKPRP | -0.114 |
| RRIRGRPPRLPRPRPRPNDPPRP | -0.0529 |
| RRIRYRPPRLPRPRPRPQVSPRP | -0.849 |
| RRIRCRPPRLPRPRPRPYAEPRP | -0.0578 |
| RRIRRRPPRLPRPRPRPDPRPRP | 0.12 |
| RRIRYRPPRLPRPRPRPQLMPRP | -0.509 |
| RRIRSRPPRLPRPRPRPRGPPRP | 0.568 |
| RRIRHRPPRLPRPRPRPTVIPRP | 0.0211 |
| RRIRSRPPRLPRPRPRPYKRPRP | -0.618 |

| Sequence | shrunken log2 fold change |
| --- | --- |
| RRIRTRPPRLPRPRPRPYKCPRP | -0.372 |
| RRIRCRPPRLPRPRPRPEFWPRP | 0.163 |
| RRIRFRPPRLPRPRPRPWCYPRP | -0.751 |
| RRIRARPPRLPRPRPRPGQVPRP | 0.402 |
| RRIRWRPPRLPRPRPRPHGKPRP | 0.00196 |
| RRIRFRPPRLPRPRPRPRTGPRP | 0.0905 |
| RRIRDRPPRLPRPRPRPTGWPRP | 1.21 |
| RRIRFRPPRLPRPRPRPRAMPRP | 0.241 |
| RRIRMRPPRLPRPRPRPAVMPRP | 0.782 |
| RRIRARPPRLPRPRPRPNPGPRP | 0.462 |
| RRIRARPPRLPRPRPRPQQHPRP | 0.284 |
| RRIRWRPPRLPRPRPRPYYSPRP | -0.181 |
| RRIRNRPPRLPRPRPRPCTAPRP | 0.022 |
| RRIRTRPPRLPRPRPRPFHLPRP | -0.0758 |
| RRIRNRPPRLPRPRPRPQPLPRP | -0.102 |
| RRIRKRPPRLPRPRPRPHGDPRP | 0.0106 |
| RRIRFRPPRLPRPRPRPVWYPRP | -0.308 |
| RRIRNRPPRLPRPRPRPWMHPRP | -0.228 |
| RRIRLRPPRLPRPRPRPCGGPRP | 0.091 |
| RRIRPRPPRLPRPRPRPPRTPRP | 0.609 |
| RRIRMRPPRLPRPRPRPEAMPRP | 0.204 |
| RRIRRRPPRLPRPRPRPCGGPRP | 0.686 |

| Sequence | shrunken log2 fold change |
| --- | --- |
| RRIRSRPPRLPRPRPRPKEYPRP | 0.167 |
| RRIRGRPPRLPRPRPRPHKEPRP | -0.0695 |
| RRIRNRPPRLPRPRPRPSVSPRP | -0.44 |
| RRIRLRPPRLPRPRPRPYFPPRP | -0.802 |
| RRIRDRPPRLPRPRPRPRCEPRP | 0.161 |
| RRIRVRPPRLPRPRPRPPDLPRP | 0.195 |
| RRIRSRPPRLPRPRPRPTPKPRP | 0.697 |
| RRIRKRPPRLPRPRPRPPVPPRP | 0.794 |
| RRIRPRPPRLPRPRPRPTRKPRP | 0.483 |
| RRIRDRPPRLPRPRPRPMPKPRP | -0.0503 |
| RRIRMRPPRLPRPRPRPIIMPRP | -0.46 |
| RRIRKRPPRLPRPRPRPDRPPRP | 0.0953 |
| RRIRFRPPRLPRPRPRPDSGPRP | -0.0156 |
| RRIRWRPPRLPRPRPRPTFYPRP | -0.298 |
| RRIRRRPPRLPRPRPRPTHKPRP | 0.783 |
| RRIRHRPPRLPRPRPRPLWSPRP | -0.31 |
| RRIRMRPPRLPRPRPRPFFAPRP | 0.445 |
| RRIRIRPPRLPRPRPRPMSEPRP | -0.00782 |
| RRIRPRPPRLPRPRPRPQSHPRP | -0.291 |
| RRIRDRPPRLPRPRPRPLFQPRP | 0.192 |
| RRIRFRPPRLPRPRPRPDQMPRP | -0.155 |
